Data from PMC3858555.

Molecular target: CIN85 of MDCK cells (dog (endogenous in MDCK))
Experiment: co-IP; whole cell lysates (RIPA), 500 μg; precipitated with anti-CIN85 antibody, blotted with anti-MUC1 (3C6, Ab5) or anti-Tac; washed with RIPA containing 0.5 M NaCl, 2% SDS; control unrelated IgG; intensity by Image J

Which fold co-precipitation against the construct lacking the cytoplasmic tail (22TR-Tac) does the source give for “full-length MUC1 containing 22 tandem repeats in the VNTR domain (natural protein)” here?
The fold co-precipitation against the construct lacking the cytoplasmic tail (22TR-Tac) was 1.9 fold.

And the fold co-precipitation against the construct lacking the extracellular domain (Tac-CT)?
Its fold co-precipitation against the construct lacking the extracellular domain (Tac-CT) is 2.4 fold.
